Data on 1 variant can be found in IntAct's records for PubMed 15660133.

Sequences and labels used below:
B1: Protein phosphatase Slingshot homolog 1 (Homo sapiens), Q8WYL5 (parent)
chain: MALVTLQRSPTPSAASSSASNSELEAGSEEDRKLNLSLSESFFMVKGAALFLQQGSSPQGQRSLQHPHKHAGDLPQHLQVMINLLRCEDRIKLAVRLESAWADRVRYMVVVYSSGRQDTEENILLGVDFSSKESKSCTIGMVLRLWSDTKIHLDGDGGFSVSTAGRMHIFKPVSVQAMWSALQVLHKACEVARRHNYFPGGVALIWATYYESCISSEQSCINEWNAMQDLESTRPDSPALFVDKPTEGERTERLIKAKLRSIMMSQDLENVTSKEIRNELEKQMNCNLKELKEFIDNEMLLILGQMDKPSLIFDHLYLGSEWNASNLEELQGSGVDYILNVTREIDNFFPGLFAYHNIRVYDEETTDLLAHWNEAYHFINKAKRNHSKCLVHCKMGVSRSASTVIAYAMKEFGWPLEKAYNYVKQKRSITRPNAGFMRQLSEYEGILDASKQRHNKLWRQQTDSSLQQPVDDPAGPGDFLPETPDGTPESQLPFLDDAAQPGLGPPLPCCFRRLSDPLLPSPEDETGSLVHLEDPEREALLEEAAPPAEVHRPARQPQQGSGLCEKDVKKKLEFGSPKGRSGSLLQVEETEREEGLGAGRWGQLPTQLDQNLLNSENLNNNSKRSCPNGMEDDAIFGILNKVKPSYKSCADCMYPTASGAPEASRERCEDPNAPAICTQPAFLPHITSSPVAHLASRSRVPEKPASGPTEPPPFLPPAGSRRADTSGPGAGAALEPPASLLEPSRETPKVLPKSLLLKNSHCDKNPPSTEVVIKEESSPKKDMKPAKDLRLLFSNESEKPTTNSYLMQHQESIIQLQKAGLVRKHTKELERLKSVPADPAPPSRDGPASRLEASIPEESQDPAALHELGPLVMPSQAGSDEKSEAAPASLEGGSLKSPPPFFYRLDHTSSFSKDFLKTICYTPTSSSMSSNLTRSSSSDSIHSVRGKPGLVKQRTQEIETRLRLAGLTVSSPLKRSHSLAKLGSLTFSTEDLSSEADPSTVADSQDTTLSESSFLHEPQGTPRDPAATSKPSGKPAPENLKSPSWMSKS

Variants of B1 are the subject of this assay. To be noted: with limk1_human LIMK1, P53667.
Chain of limk1_human LIMK1, P53667 (P53667 whole entry, looked up): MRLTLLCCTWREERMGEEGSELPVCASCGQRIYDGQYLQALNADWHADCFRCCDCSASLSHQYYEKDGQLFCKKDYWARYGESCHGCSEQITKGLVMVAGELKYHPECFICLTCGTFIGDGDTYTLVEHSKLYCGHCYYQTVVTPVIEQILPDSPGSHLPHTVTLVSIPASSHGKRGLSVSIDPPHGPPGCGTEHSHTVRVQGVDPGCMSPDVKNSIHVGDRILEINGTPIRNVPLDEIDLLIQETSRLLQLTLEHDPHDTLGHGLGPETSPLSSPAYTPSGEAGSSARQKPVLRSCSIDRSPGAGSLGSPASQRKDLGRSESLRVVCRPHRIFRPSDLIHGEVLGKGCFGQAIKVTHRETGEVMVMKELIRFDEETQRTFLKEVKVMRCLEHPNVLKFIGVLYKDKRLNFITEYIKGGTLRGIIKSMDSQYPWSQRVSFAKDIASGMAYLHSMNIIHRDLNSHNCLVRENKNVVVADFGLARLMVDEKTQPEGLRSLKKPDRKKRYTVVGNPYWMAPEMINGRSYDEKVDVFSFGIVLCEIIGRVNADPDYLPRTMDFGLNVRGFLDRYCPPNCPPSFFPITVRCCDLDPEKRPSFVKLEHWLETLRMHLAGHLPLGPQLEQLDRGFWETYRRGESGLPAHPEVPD
For C393S, the “effect of a mutation on the interaction” value is listed as “disrupting interaction”.
